Test results from patent US20240270821A1, “GIP/GLP1/GCG TRI-RECEPTOR AGONISTS AND USES THEREOF” (priority 2023, published 2024).
Where a chain is given by its changes, count along the chain named.

B1: Example 1168 (peptide)
chain: YXQGTXTSDXXIXLDXKAQXEFIEXLIEGGPSSGAPPPSGGGE
modifications: non-natural residues, AEEA-γGlu-C18 diacid lysine acylation, C-terminal amide; synthetic construct; SITE 2: note = 2-Aminoisobutyric Acid; SITE 6: note = alpha-methyl-L-phenylalanine; SITE 10: note = 3-(4-Pyridyl)-L-alanine; SITE 11: note = alpha-methyl-L-serine; SITE 13: note = alpha-methyl-leucine; SITE 16: note = L-ornithine; SITE 17: note = Lysine is chemically modified th
B2: Example 1180 (peptide)
chain: B1 chain
modifications: Non-natural residues; K acylated AEEA-(γGlu)2-C18 diacid; C-terminal amide; synthetic construct; SITE 2: note = 2-Aminoisobutyric Acid; SITE 6: note = alpha-methyl-2-fluoro-L-phenylalanine; SITE 10: note = 3-(4-Pyridyl)-L-alanine; SITE 11: note = alpha-methyl-L-serine; SITE 13: note = alpha-methyl-leucine; SITE 16: note = L-ornithine; SITE 17: note = Lysine is chemically mo
B3: Example 1174 (peptide)
chain: B1 chain
modifications: non-natural residues (Aib, αMeF, 4Pal, Orn, Me4Pal); lipidated Lys; C-amide; synthetic construct; SITE 2: note = 2-Aminoisobutyric Acid; SITE 6: note = alpha-methyl-L-phenylalanine; SITE 10: note = 3-(4-Pyridyl)-L-alanine; SITE 11: note = alpha-methyl-L-serine; SITE 13: note = alpha-methyl-leucine; SITE 16: note = L-ornithine; SITE 17: note = Lysine is chemically modified th
B4: Example 1181 (peptide)
chain: B1 chain with A35E
modifications: non-natural residues, AEEA-(γGlu)2-C18 diacid acyl on K, C-terminal amide; synthetic construct; SITE 2: note = 2-Aminoisobutyric Acid; SITE 6: note = alpha-methyl-2-fluoro-L-phenylalanine; SITE 10: note = 3-(4-Pyridyl)-L-alanine; SITE 11: note = alpha-methyl-L-serine; SITE 13: note = alpha-methyl-leucine; SITE 16: note = L-ornithine; SITE 17: note = Lysine is chemically mo
B5: Example 1169 (peptide)
chain: B1 chain with A35E
modifications: non-natural residues; acylated Lys C18 diacid; C-term amide; synthetic construct; SITE 2: note = 2-Aminoisobutyric Acid; SITE 6: note = alpha-methyl-L-phenylalanine; SITE 10: note = 3-(4-Pyridyl)-L-alanine; SITE 11: note = alpha-methyl-L-serine; SITE 13: note = alpha-methyl-leucine; SITE 16: note = L-ornithine; SITE 17: note = Lysine is chemically modified th
B6: Example 1175 (peptide)
chain: B1 chain with A35E
modifications: Aib, αMe residues, 4Pal, Orn, Me4Pal; acylated K; amide; synthetic construct; SITE 2: note = 2-Aminoisobutyric Acid; SITE 6: note = alpha-methyl-L-phenylalanine; SITE 10: note = 3-(4-Pyridyl)-L-alanine; SITE 11: note = alpha-methyl-L-serine; SITE 13: note = alpha-methyl-leucine; SITE 16: note = L-ornithine; SITE 17: note = Lysine is chemically modified th
B7: Example 1164 (peptide)
chain: YXQGTXTSDXXIXLDXKAQXEFIEXLIEGGPSSGAPPPSGE
modifications: non-natural residues; acylated Lys C18 diacid; C-term amide; synthetic construct; SITE 2: note = 2-Aminoisobutyric Acid; SITE 6: note = alpha-methyl-L-phenylalanine; SITE 10: note = 3-(4-Pyridyl)-L-alanine; SITE 11: note = alpha-methyl-L-serine; SITE 13: note = alpha-methyl-leucine; SITE 16: note = L-ornithine; SITE 17: note = Lysine is chemically modified th
B8: Example 1171 (peptide)
chain: B7 chain with A35E
modifications: non-natural residues, (γGlu)2-C18 diacid lysine acylation, C-terminal amide; synthetic construct; SITE 2: note = 2-Aminoisobutyric Acid; SITE 6: note = alpha-methyl-L-phenylalanine; SITE 10: note = 3-(4-Pyridyl)-L-alanine; SITE 11: note = alpha-methyl-L-serine; SITE 13: note = alpha-methyl-leucine; SITE 16: note = L-ornithine; SITE 17: note = Lysine is chemically modified th
B9: Example 1176 (peptide)
chain: B7 chain
modifications: non-natural residues; lipidated Lys; C-terminal amide; synthetic construct; SITE 2: note = 2-Aminoisobutyric Acid; SITE 6: note = alpha-methyl-2-fluoro-L-phenylalanine; SITE 10: note = 3-(4-Pyridyl)-L-alanine; SITE 11: note = alpha-methyl-L-serine; SITE 13: note = alpha-methyl-leucine; SITE 16: note = L-ornithine; SITE 17: note = Lysine is chemically mo
B10: Example 1177 (peptide)
chain: B7 chain with A35E
modifications: non-natural residues; Lys acylated C18 diacid via AEEA-γGlu2; C-term amide; synthetic construct; SITE 2: note = 2-Aminoisobutyric Acid; SITE 6: note = alpha-methyl-2-fluoro-L-phenylalanine; SITE 10: note = 3-(4-Pyridyl)-L-alanine; SITE 11: note = alpha-methyl-L-serine; SITE 13: note = alpha-methyl-leucine; SITE 16: note = L-ornithine; SITE 17: note = Lysine is chemically mo

What follows are binders tested against hGLP-1R (Homo sapiens, UniProt P43220) (assay: cell-based or functional assay).
hGLP-1R, sequence (P43220 24-463): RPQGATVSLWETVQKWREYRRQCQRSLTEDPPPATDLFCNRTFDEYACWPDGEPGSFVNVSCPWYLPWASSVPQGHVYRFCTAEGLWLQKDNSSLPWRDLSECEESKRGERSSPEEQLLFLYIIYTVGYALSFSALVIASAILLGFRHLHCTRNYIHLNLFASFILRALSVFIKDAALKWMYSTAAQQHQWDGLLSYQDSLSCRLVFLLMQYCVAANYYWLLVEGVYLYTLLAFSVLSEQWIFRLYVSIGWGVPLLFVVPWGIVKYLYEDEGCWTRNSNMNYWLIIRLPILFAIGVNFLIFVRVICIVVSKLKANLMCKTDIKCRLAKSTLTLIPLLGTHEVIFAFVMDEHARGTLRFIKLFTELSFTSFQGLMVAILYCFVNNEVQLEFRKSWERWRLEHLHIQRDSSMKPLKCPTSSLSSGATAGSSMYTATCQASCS

Binder	Relative cAMP EC50	cAMP Rel EC50 (in the presence of 1% HSA)
B1	0.422 nM	65.4 nM
B2	0.445 nM	35.6 nM
B3	0.454 nM	60.2 nM
B4	0.664 nM	48.2 nM
B5	0.613 nM	80 nM
B6	0.572 nM	60.7 nM
B7	0.495 nM	63.5 nM
B8	0.529 nM	52.9 nM
B9	–	43.8 nM
B10	0.681 nM	43.6 nM

The binders below were run against T1, human GIP receptor (human) (UniProt P48546) (assay: cell-based or functional assay).
T1 sequence (looked up): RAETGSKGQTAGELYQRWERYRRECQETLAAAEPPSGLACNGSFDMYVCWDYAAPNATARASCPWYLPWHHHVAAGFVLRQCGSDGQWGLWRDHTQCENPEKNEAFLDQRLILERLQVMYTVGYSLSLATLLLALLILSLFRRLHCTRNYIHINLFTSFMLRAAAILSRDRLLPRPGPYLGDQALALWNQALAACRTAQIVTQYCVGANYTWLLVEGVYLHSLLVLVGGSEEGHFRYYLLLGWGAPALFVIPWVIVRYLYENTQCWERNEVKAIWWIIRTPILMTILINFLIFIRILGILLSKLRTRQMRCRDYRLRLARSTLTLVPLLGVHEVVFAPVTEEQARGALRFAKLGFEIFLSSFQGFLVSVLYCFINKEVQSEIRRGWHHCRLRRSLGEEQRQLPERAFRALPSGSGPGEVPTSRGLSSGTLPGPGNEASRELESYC

Binder	Relative cAMP EC50	cAMP Rel EC50 (in the presence of 1% HSA)
B1	0.00839 nM	0.999 nM
B2	0.00602 nM	0.341 nM
B3	0.00896 nM	0.707 nM
B4	0.0115 nM	0.666 nM
B5	0.011 nM	1.18 nM
B6	0.00962 nM	0.768 nM
B7	0.0104 nM	1.17 nM
B8	0.00953 nM	0.718 nM
B9	–	0.462 nM
B10	0.0114 nM	0.544 nM

What follows are binders tested against human glucagon receptor (human) (UniProt P47871) (assay: cell-based or functional assay).
human glucagon receptor (human), sequence (P47871 26-477): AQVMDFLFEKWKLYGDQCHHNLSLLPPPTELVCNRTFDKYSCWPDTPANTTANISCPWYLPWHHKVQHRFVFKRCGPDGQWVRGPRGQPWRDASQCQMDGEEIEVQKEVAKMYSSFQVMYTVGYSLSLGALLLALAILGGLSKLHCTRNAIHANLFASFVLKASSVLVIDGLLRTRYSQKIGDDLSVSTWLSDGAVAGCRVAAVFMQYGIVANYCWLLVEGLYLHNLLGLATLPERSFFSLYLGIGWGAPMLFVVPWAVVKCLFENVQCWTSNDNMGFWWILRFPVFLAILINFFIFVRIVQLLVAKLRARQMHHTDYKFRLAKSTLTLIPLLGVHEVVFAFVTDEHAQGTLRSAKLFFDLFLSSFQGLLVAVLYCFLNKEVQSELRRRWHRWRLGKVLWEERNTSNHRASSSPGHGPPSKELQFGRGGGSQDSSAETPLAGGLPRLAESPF

Binder	Relative cAMP EC50	cAMP Rel EC50 (in the presence of 1% HSA)
B1	2.63 nM	364 nM
B2	3.16 nM	205 nM
B3	2.58 nM	347 nM
B4	3.34 nM	203 nM
B5	2.43 nM	304 nM
B6	2.08 nM	282 nM
B7	2.83 nM	359 nM
B8	2.19 nM	233 nM
B9	–	229 nM
B10	4.23 nM	156 nM
